For experiment [1], the target named is CD3 on Jurkat cells (Homo sapiens (Human)) (UniProt P07766). The experiment in a line: flow cytometry on Jurkat cells, 5 nM, anti-human IgG-FITC.
Experiment [2] has the same target. The experiment in a line: flow cytometry on Jurkat cells, as in Example 8. Background: Flow cytometry measures light scatter and fluorescence of single cells or particles in a stream.
For experiment [3] the target is unchanged. The experiment in a line: flow cytometry on Jurkat cells, as in Example 8. The source holds these as a separate data set.
The next experiment concerns the target HER2 on SK-BR-3 cells (UniProt P04626). The experiment can be described thus: flow cytometry on SK-BR-3 cells, 0.5 nM, anti-human IgG-FITC.
A further experiment has as its target CD20 on Raji cells (UniProt P11836). The experiment in a line: flow cytometry on Raji cells, as in Example 8.
Experiment [4] has as its target CD3 on Jurkat cells (Homo sapiens (Human)) (UniProt P07766). The experiment can be described thus: flow cytometry on Jurkat cells, as in Example 8. This is another data set of the same source.

MFI and Mean Fluorescence Intensity (MFI) data for one substance are collected here from patent publication US20190284299A1.

Sequence of CD3 on Jurkat cells (Homo sapiens (Human)) (P07766 23-207 limits assumed, form in doubt, chain 1 of 3): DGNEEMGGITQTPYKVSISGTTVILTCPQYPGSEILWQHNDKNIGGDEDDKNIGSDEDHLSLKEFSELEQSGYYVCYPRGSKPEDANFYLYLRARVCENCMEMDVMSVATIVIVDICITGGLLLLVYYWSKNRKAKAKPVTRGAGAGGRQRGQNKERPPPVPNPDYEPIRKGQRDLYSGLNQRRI
Sequence of CD3 on Jurkat cells (Homo sapiens (Human)) (delta, as listed by the source limits assumed, form in doubt, chain 2 of 3): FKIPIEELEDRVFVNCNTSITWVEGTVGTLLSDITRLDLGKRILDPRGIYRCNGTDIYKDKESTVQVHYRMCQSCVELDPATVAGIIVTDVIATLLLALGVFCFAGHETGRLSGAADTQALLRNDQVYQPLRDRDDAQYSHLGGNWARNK
Sequence of CD3 on Jurkat cells (Homo sapiens (Human)) (gamma, as listed by the source limits assumed, form in doubt, chain 3 of 3): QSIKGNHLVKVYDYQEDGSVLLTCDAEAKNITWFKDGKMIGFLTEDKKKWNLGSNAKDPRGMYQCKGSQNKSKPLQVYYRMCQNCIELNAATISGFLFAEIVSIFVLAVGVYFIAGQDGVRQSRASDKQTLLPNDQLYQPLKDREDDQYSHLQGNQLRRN
Sequence of CD20 on Raji cells (P11836 whole entry): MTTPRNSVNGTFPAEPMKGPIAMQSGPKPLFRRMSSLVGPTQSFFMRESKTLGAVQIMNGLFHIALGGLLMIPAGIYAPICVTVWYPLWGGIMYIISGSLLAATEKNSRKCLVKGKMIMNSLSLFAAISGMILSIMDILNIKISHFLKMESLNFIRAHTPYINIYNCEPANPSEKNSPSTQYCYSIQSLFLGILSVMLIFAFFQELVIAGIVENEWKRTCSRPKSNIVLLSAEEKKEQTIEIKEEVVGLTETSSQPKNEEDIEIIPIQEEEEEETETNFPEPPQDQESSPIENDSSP

Turning to “isotype control (human immunoglobulin, Jiangxi Boya Bio-pharmaceutical, Approval No.S19993012) (antibody)”, the MFI stood at 3.16 in experiment [1]; 3.34 in experiment [2]; 2.75 in experiment [3]; 2.77 with CD20 on Raji cells; 2.7 in experiment [4]. In addition, the Mean Fluorescence Intensity (MFI) with HER2 on SK-BR-3 cells was 2.88.
